The target in experiment [1] is T1, human CD123 on cells (human, UniProt P26951 19-378).
T1 construct: also called CHO human CD123; CHO hu CD123
In words: flow cytometry on CHO cells transfected with human CD123.

In experiment [2] the target is T2, cynomolgus CD123 on cells (cynomolgus).
T2 construct: whole, on cells; also called HEK293 cyno CD123; cyCD123
Kind of experiment: flow cytometry on HEK293 cells transfected with cynomolgus CD123. A general note: A flow cytometer gives signals particle by particle.

The target in experiment [3] is T1, human CD123 on cells. Kind of experiment: flow cytometry on CHO Flp-In huCD123 cells; FLAG-tagged ISVD, anti-FLAG + APC goat anti-mouse; MFI (median APC) [panel CHO Flp-In huCD123 cells].
For experiment [4], the target named is T2, cynomolgus CD123 on cells. Kind of experiment: flow cytometry on HEK Flp-In cyCD123 cells; FLAG-tagged ISVD, anti-FLAG + APC goat anti-mouse; MFI (median APC) [panel HEK Flp-In cyCD123 cells].
Experiment [5] has as its target T3, human CD33 on cells (human, UniProt P20138 18-364).
T3 construct: whole, on cells; also called CHO hu CD33; huCD33
In words: flow cytometry on CHO cells transfected with human CD33.

Experiment [6] has as its target T4, cynomolgus CD33 on cells (cynomolgus).
T4 construct: whole, on cells; also called CHO cy CD33; cyCD33
In words: flow cytometry on CHO cells transfected with cynomolgus CD33.

Experiment [7] deals with T5, human GPC3 on cells (human, UniProt P51654 25-554). In words: cell-based or functional assay.
Experiment [8] addresses T6, human TCR on primary human T cells (human, UniProt P01848 1-140; P01850 1-176).
T6 TCR alpha (looked up): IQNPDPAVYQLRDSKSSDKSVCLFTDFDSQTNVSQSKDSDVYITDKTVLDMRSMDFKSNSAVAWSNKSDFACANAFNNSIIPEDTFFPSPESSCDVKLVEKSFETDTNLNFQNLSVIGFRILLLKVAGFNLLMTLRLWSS
T6 TCR beta (looked up): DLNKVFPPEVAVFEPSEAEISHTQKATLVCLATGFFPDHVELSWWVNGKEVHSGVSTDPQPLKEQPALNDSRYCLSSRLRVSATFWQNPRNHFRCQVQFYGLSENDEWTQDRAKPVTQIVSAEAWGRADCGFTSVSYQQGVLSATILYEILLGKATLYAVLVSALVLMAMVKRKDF
In words: cell-based or functional assay.

Experiment [9] deals with cynomolgus TCR on primary cynomolgus T cells (cynomolgus). In words: cell-based or functional assay.
Experiment [10] concerns the target T5, human GPC3 on cells. In words: flow cytometry, binding to Huh-7 cells.
The target of experiment [11] is T7, human GPC3 (recombinant) (human, UniProt P51654 25-559).
T7 construct: also called human Glypican-3
In words: SPR, ProteOn XPR36; GPC3 captured on anti-His antibody. The procedure: (§1) Recombinant GPC3 proteins were captured on a GLC Sensor Chip (Biorad) immobilized with THE anti-His antibody (Genscript, cat no ABIN387699) via amine coupling, using EDC and NHS chemistry (running buffer: HBS-EP+, pH7.4). Purified ISVDs were injected for 2 minutes (flow rate 45 μL/min) at different concentrations (between 0.3 nM and 1000 nM) and dissociation was followed for 900 s. Regeneration was performed by injecting 10 mM Glycine-HCl (pH 1.5) for 1 minute (flow rate 45 μL/min). […] Processed sensorgrams were analyzed based on the 1:1 interaction model (Langmuir binding model) using ProteOn Manager 3.1.0 (Version 3.1.0.6) software.

Experiment [12] deals with T8, cyno GPC3 (recombinant, in house produced) (cynomolgus, UniProt A0A2K5VK50 24-558).
T8 construct: also called cynomolgus Glypican-3
Described as above. The procedure:
as §1

Experiment [13] deals with T9, Cynomolgus TCR(AEA41865/AEA41866)-zipper protein (cynomolgus).
T9 construct: also called cyTCR-zipper; cyTCR(AEA41865)-zipper
T9 TCR alpha: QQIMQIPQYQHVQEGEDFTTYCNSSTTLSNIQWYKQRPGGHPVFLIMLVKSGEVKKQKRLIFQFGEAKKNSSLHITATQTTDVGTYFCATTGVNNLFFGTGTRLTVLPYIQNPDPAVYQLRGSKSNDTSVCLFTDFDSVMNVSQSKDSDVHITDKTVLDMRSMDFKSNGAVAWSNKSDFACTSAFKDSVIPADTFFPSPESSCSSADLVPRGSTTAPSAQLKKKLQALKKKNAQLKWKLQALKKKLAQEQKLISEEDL
T9 TCR beta: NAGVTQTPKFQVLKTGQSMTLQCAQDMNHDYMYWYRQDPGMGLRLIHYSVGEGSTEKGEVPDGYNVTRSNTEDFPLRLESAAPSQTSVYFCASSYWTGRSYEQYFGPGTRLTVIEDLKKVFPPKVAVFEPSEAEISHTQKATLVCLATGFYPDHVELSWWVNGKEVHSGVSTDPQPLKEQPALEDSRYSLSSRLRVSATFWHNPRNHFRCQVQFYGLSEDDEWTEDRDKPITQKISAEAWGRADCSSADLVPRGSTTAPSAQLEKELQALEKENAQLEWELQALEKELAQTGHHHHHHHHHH
In words: SPR, ProteOn XPR36; TCR-zipper protein immobilised by amine coupling. The procedure: Purified ISVDs were injected for 2 minutes (flow rate 45 μL/min) at different concentrations (between 0.2 nM and 200 nM) and dissociation was followed for 900 s. Regeneration was performed by injecting 3 M MgCl₂ for 3 minutes (flow rate 90 μL/min). […] Processed sensorgrams were analyzed based on the 1:1 interaction model (Langmuir binding model) using ProteOn Manager 3.1.0 (Version 3.1.0.6) software.
Background: SPR reads the build-up and loss of mass on a sensor chip optically.

Experiment [14] concerns the target T10, cyno GPC3 on CHO-Flp-In cells (cynomolgus, UniProt A0A2K5VK50 24-553).
T10 construct: whole, on cells; also called CHO cyGPC3
Kind of experiment: flow cytometry, binding to CHO-Flp-In cells overexpressing cyno GPC3.

Experiment [15] has as its target T5, human GPC3 on cells. In words: flow cytometry, binding to CHO-Flp-In cells overexpressing human GPC3.
In experiment [16] the target is T6, human TCR on primary human T cells. Kind of experiment: flow cytometry competition on primary human T cells; competitor Flag-tagged T017000624 at EC30. The procedure:
(§2) T cells (human T cells obtained as described in Example 3 and cyno T cells purchased from LPT laboratory, Germany) were thawed and counted on the day of the assay and diluted to a concentration of 1E+06 cells/mL, before adding 75 μL to the wells of a V-bottom 96-well plate (Greiner, cat no 651180). Cells were washed once with cold FACS buffer, before adding 25 μL Nb and 25 μL competitor to the wells. […] Cells were resuspended and plates were incubated at 4° C. for 90 minutes, after which plates were washed twice in cold FACS buffer. […] Plates were washed twice in cold FACS buffer. […] Plates were washed twice in cold FACS buffer. Cells were resuspended in 55 μL 1/1000 diluted Propidium Iodide (Sigma-Aldrich, cat no P4170) in FACS buffer before acquiring data on the MACSQuant X (Miltenyi biotec).

Experiment [17] deals with T11, cynomolgus TCR on primary cynomolgus T cells (cynomolgus).
T11 construct: whole, on cells; also called cyno TCRαβ
In words: flow cytometry competition on primary cynomolgus T cells; competitor Flag-tagged T017000623 at EC30. As for the experimental part: as §2

In experiment [18] the target is T12, cyno GPC3 on cells (cynomolgus monkey, UniProt A0A2K5VK50 24-553).
T12 construct: whole, on cells; also called CHO cyGPC3; CHO-Flp-In cells overexpressing cyno GPC3
In words: flow cytometry on cells; lower end, tied by Table 44 to CHO cyGPC3.

In experiment [19] the target is T13, human GPC3 on cells (human, UniProt P51654 25-554).
T13 construct: whole, on cells; also called CHO huGPC3; CHO-Flp-In cells overexpressing human GPC3
In words: flow cytometry on cells; upper end, tied by Table 44 to CHO huGPC3.

Where “and” joins values, the source holds several entries; their conditions need not be identical. Equal entries are not always repeated.

Broadly, the EC50 is the concentration needed to bring the measured effect to its halfway point. Usually EC50 (read off the curve) stands for the concentration at which the effect is half-maximal. Broadly, the Kd is the concentration at which binding is half-saturated. As usually defined, the IC50 is the concentration at which inhibition is half-maximal. Higher therefore signals weaker potency.

T3 sequence (P20138 18-364): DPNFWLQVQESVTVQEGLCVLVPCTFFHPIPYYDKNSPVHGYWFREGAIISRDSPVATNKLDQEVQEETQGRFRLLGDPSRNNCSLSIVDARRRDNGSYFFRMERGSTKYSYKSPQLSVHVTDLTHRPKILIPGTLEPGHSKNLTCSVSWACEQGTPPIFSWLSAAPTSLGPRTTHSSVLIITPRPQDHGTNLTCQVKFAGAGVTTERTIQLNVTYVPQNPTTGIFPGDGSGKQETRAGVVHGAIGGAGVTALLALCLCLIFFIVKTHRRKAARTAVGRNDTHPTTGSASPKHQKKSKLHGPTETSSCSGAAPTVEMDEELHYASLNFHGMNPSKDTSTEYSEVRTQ
T1 sequence (P26951 19-378 limits assumed): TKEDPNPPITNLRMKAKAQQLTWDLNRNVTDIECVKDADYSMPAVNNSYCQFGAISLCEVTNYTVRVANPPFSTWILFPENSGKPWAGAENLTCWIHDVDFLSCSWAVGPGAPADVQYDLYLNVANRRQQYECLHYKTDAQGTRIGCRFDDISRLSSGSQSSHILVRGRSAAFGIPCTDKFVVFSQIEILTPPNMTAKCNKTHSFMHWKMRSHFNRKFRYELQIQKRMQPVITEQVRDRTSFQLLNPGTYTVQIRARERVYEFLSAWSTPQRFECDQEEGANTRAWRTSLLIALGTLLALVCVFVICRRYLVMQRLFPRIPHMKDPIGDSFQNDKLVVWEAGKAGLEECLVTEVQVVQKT

B1: monovalent CD123 building block (SEQ ID NO: 462) (VHH)
VHH: EVQLVESGGGVVQPGGSLRLSCAASGVIFSGNVMGWYRRQAPGKEREWVAAIAEGGSILYRDSVKGRFTISRDNAKNTVYLQMNSLRPEDTALYYCNSHPPVLPYWGQGTLVTVSS
For the molecule B1, the EC50 in experiment [1] is 0.31 nM and 0.2 nM; in [2], 0.8 nM. For the same molecule, the “EC50 (read off the curve)” value was ~0.7 nM in experiment [3] and ~0.3 nM in experiment [4].

B2: monovalent CD33 building block (SEQ ID NO: 463) (VHH)
VHH: EVQLVESGGGVVQPGGSLRLSCAASGGVFRLNSMGWFRQAPGKQRELVAIITSDGDTNYADSVKGRFTISRDQAKNTVYLQMNSLRPEDTALYYCQITYSTSSYSFPINTWGQGTLVTVSS
Consider B2, for which the EC50 is 6.2 nM and 5.5 nM and 7.7 nM in experiment [5]; 5.7 nM and 12 nM in experiment [6].

B3: A022600424 (other)
chain: DVQLVESGGGVVQPGGSLRLSCVASGYVHKINFYGWYRQAPGKEREKVAHISIGDQTDYADSAKGRFTISRDESKNTVYLQMNSLRPEDTAAYYCRALSRIWPYDYWGQGTLVTVSSGGGGSEVQLVESGGGVVQPGGSLRLSCAASGFTFSSFAMTWVRRPPGKGLEWVATITNKGVTSYADSVKGRFTISRDNAKNTLYLQMNSLRPEDTALYICANARRTGPRAPTDIGSYRGQGTLVTVSSGGGGSGGGSEVQLVESGGGVVQPGGSLRLSCAASGSIFRSVFSSSTMEWYRQAPGKKRELVARIAPGEGTYYGALYADSVKGRFTISRDNAKNTVYLQMNSLRPEDTALYYCASGVAWGQGTLVTVSSGGGGSGGGSEVQLVESGGGVVQPGGSLRLSCAASGFTFRSFGMSWVRQAPGKGPEWVSSISGSGSDTLYADSVKGRFTISRDNSKNTLYLQMNSLRPEDTALYYCTIGGSLSRSSQGTLVTVSSA
notes: also called T017000680-5GS-A022600351-9GS-A022600314-9GS-ALB23002-A
As for B3, the “IC50 (M) BxPC-3, xCELLigence human TDC assay, E:T 15:1, 60 h” value in experiment [7] is > 1e-07 M. Moreover, the “IC50 (M) HepG2, xCELLigence human TDC assay, E:T 15:1, 60 h” value in experiment [7] worked out at 1.15e-10 M. Also, the “IC50 (M) Huh-7, xCELLigence human TDC assay, E:T 15:1, 60 h” value in experiment [7] amounted to 1.16e-10 M. In addition, in experiment [7], the “IC50 (M) NCI-H23, xCELLigence human TDC assay, E:T 15:1, 60 h” value was > 1e-07 M. In addition, the “IC50 (M) NCI-H661, xCELLigence human TDC assay, E:T 15:1, 60 h” value in [7] came out at 1.14e-10 M. Moreover, the “Primary hu T cells IC50 (M), xCELLigence TDC assay on Huh-7, E:T 15:1, 60 h” value in experiment [8] worked out at 7.59e-11 M. Besides, in experiment [9], the “Primary cy T cells IC50 (M), xCELLigence TDC assay on Huh-7, E:T 15:1, 60 h” value is 2.29e-10 M. In addition, the 50% effective concentration (EC50) was 1.25 nM in [10], 1.11 nM in [14] and 1.82 nM in [15]. Also, the Kd in [11] was < 0.0056 nM; in experiment [12] it was < 0.0059 nM; in [13], 5.4 nM. Besides, the concentration for half-maximal inhibition (IC50) in experiment [16] is 170 nM; in [17], 250 nM.

B4: A022600424 (other)
chain: DVQLVESGGGVVQPGGSLRLSCVASGYVHKINFYGWYRQAPGKEREKVAHISIGDQTDYADSAKGRFTISRDESKNTVYLQMNSLRPEDTAAYYCRALSRIWPYDYWGQGTLVTVSSGGGGSEVQLVESGGGVVQPGGSLRLSCAASGFTFSSFAMTWVRRPPGKGLEWVATITNKGVTSYADSVKGRFTISRDNAKNTLYLQMNSLRPEDTALYICANARRTGPRAPTDIGSYRGQGTLVTVSSGGGGSGGGSEVQLVESGGGVVQPGGSLRLSCAASGSIFRSVFSSSTMEWYRQAPGKKRELVARIAPGEGTYYGALYADSVKGRFTISRDNAKNTVYLQMNSLRPEDTALYYCASGVAWGQGTLVTVSSGGGGSGGGSEVQLVESGGGVVQPGGSLRLSCAASGFTFRSFGMSWVRQAPGKGPEWVSSISGSGSDTLYADSVKGRFTISRDNSKNTLYLQMNSLRPEDTALYYCTIGGSLSRSSQGTLVTVSSA
notes: as for B3
For B4, the EC50 in [18] and in [19] was 1 to 2 nM throughout.

The values are drawn from patent US20240092919A1 (Ablynx, published 2024).
